In US10471162B2, “Collagen targeted imaging probes” (priority 2014, dated 2019):
Where a SMILES comes first, the peptide text is derived from it. Bridges are numbered along the chain shown (N, C = ends). The star is where a group is joined. NODAGA = O=C(O)CN1CCN(CC(=O)O)CCN(C(CCC(=O)*)C(=O)O)CC1

Tests used:
[1] = test system: pulmonary fibrosis, C57/BL6 mice (bleomycin or sham); settings: mouse, in vivo
Protocol: Pulmonary fibrosis was induced in 7-8-week-old male C57/BL6 mice by transtracheal administration of bleomycin (BM; 2.5 U/kg) in 50 μL of PBS under direct vision using a small cervical incision. Sham animals received only PBS. Animals were placed in a small-animal PET/SPECT/CT scanner (Triumph; TriFoil Imaging), equipped with inhalation anesthesia and heating pad. Each animal was anesthetized with isoflurane (4% for induction, 1-1.5% for maintenance in medical air). After placement of an in-dwelling catheter in the femoral vein for probe administration, mice were positioned in the PET-CT and the probe was given as a bolus as the PET acquisition began. Mice were imaged continuously by PET for 120 minutes. […] Instrument calibration was performed with phantoms containing small known amounts of radioactivity. […] Reconstructed PET/CT data were quantitatively evaluated using AMIDE software package (Loening and Gambhir, 2003). […] The radioactivity concentration within organs was obtained from mean pixel values within the VOI volume and converted to counts per milliliter per minute and then divided by the injected dose (ID) to obtain an imaging VOI-derived percentage of the injected radioactive dose per cubic centimeter of tissue (% ID/cc). […] Instrument calibration was performed with phantoms containing small known amount of radioactivity. […]

[2] = rat, in vivo
Protocol: The pharmacokinetics and metabolic stability of the probes were evaluated in Adult male Wistar rats. The right femoral vein was cannulated for intravenous delivery of the PET agent and the right femoral artery was cannulated for blood sampling. Each animal was injected with approximately 50-70 μCi of ^64Cu-CBP(n) diluted in 0.2-0.3 mL with an 18 mM solution of sucrose in water, followed by saline flush. After probe injection, several blood draws were collected at 0, 2, 5, 10, 15, 30, 60 and 120 minutes post injection into ethylenediaminetetraacetic acid (EDTA) blood tubes. Blood was weighed, and radioactivity in the blood was measured on a gamma counter to assess clearance of total ^64Cu. The serum was isolated by centrifugation of the blood (10 minutes, 4950 rpm) and proteins were precipitated with a mixture of cold methanol/acetonitrile (1/1). Solids were removed by centrifugation and the supernatant was injected onto an analytic HPLC column. The eluent was collected every 30 seconds, and the activity of each fraction was measured using a gamma counter. The result was compared with standards of pure probe and probe immediately isolated from plasma (t=0 sample).

in vivo = format: in vivo, mouse; settings: male, C57/BL6, mouse, in vivo, iv, total radioactivity; for tissue uptake at 2 h: Biodistribution % ID/g
Protocol: (§1) Pulmonary fibrosis was induced in 7-8-week-old male C57/BL6 mice by transtracheal administration of bleomycin (BM; 2.5 U/kg) in 50 μL of PBS under direct vision using a small cervical incision. Sham animals received only PBS. Animals were placed in a small-animal PET/SPECT/CT scanner (Triumph; TriFoil Imaging), equipped with inhalation anesthesia and heating pad. Each animal was anesthetized with isoflurane (4% for induction, 2-2.5% for maintenance in medical air) and body temperature was kept at 37-38° C. using a heating pad. The femoral vein was cannulated for intravenous delivery of the PET agent. Each mouse was injected with approximately 0.1 mL and 20-50 μCi of ^64Cu-CBP(n), 0.1 mL and 20-50 μCi of ^68Ga-CBP(n) and 0.1 mL and 10-20 μCi of Al^18F-CBP(n) in a 18 mM solution of sucrose in water, followed by saline flush. […] The lungs, blood, urine, heart, liver, left rectus femoris muscle, spleen, small intestine, kidneys, left femur bone were collected from all animals. The tissues were weighed, and radioactivity in each tissue was measured on a gamma counter (CobraII Auto gamma; Packard). The radioactivity in the lung was reported as percent injected dose per gram corrected with the average sham weight, which was calculated by dividing the counts of ^64Cu per average sham tissue weight in gram by the total of counts of the injected dose. The radioactivity in every other tissue was reported as percent injected dose per gram (% ID/g), which was calculated by dividing the counts of ^64Cu per gram of tissue by the total of counts of the injected dose. A p-value of less than 0.05 was considered significant. Uncertainties are expressed as the standard error of the mean.

[3] = test system: pulmonary fibrosis, C57/BL6 mice (bleomycin or sham); assay: in vivo; format: in vivo, mouse; settings: for lung uptake in BM-treated (fibrotic) mice compared to sham, in words: biodistribution 2.5 hours after injection
Protocol: as §1

rat tail collagen = target: T1, rat tail collagen (Rattus norvegicus, UniProt P02454+P02466); assay: rat tail collagen-binding assay; settings: 2 hours at room temperature, single binding site model
T1 construct: from tissue; host or cells: rat tail
Protocol: Binding isotherms were obtained by following a method previously reported. (Caravan, P., Das, B., Dumas, S., Epstein, F. H., Helm, P. A., Jacques, V., Koerner, S., Kolodziej, A., Shen, L., Sun, W., Zhang, Z., Angewandte Chemie, 2007, 119(43), 8319-8321.) Briefly, increasing concentrations of a mixture of ^63/65Cu-CBP(n) and ^64Cu-CBP(n) were added to collagen containing wells. […] An aliquot of each solution was reserved as a measure of the total concentration. The plates were incubated on a shaker table (300 rpm) for 2 hours at room temperature to allow the compound to bind. After 2 hours, the supernatant from each well (with or without collagen) was assayed for ^64Cu content. The relative amount of free, unbound compound in the sample supernatants and the amount of compound in the reserved (total) sample were determined by using a gamma counter. The bound concentration is [Total]−[Free]. The concentration of ^63/65Cu-CBP(n) was less than the collagen concentration and the data were fit to a model of a single binding site with dissociation constant, Kd.

[4] = male, C57/BL6, mouse, in vivo, iv, 2 h

T1 sequence (P02454 152-1207 limits assumed): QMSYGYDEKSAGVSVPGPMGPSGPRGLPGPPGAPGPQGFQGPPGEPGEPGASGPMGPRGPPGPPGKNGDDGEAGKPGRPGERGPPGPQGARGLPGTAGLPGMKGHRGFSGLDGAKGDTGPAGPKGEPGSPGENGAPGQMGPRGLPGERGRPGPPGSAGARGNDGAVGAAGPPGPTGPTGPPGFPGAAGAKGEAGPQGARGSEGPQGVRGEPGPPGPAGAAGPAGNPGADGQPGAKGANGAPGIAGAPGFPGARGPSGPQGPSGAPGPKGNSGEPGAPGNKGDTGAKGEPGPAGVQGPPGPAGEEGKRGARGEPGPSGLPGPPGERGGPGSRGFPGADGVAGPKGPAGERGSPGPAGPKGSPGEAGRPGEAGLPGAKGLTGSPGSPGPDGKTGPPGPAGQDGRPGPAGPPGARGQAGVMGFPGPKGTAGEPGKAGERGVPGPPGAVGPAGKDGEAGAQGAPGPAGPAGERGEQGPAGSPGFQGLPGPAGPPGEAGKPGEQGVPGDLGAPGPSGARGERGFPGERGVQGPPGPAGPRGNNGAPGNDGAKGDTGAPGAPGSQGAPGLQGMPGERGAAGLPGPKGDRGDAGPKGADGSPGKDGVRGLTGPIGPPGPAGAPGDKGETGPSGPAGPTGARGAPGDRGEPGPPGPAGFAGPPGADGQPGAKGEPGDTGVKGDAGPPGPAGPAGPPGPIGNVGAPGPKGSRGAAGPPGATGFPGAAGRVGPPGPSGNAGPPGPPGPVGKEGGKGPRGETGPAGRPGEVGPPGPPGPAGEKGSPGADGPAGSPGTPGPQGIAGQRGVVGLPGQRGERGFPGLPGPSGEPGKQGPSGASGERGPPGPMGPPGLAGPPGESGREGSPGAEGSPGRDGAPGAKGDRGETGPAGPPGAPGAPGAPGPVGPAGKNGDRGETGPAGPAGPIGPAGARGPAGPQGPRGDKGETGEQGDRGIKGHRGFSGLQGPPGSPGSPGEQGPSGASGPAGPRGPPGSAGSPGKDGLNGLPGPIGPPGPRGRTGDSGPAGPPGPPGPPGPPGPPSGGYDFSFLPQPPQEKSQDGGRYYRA
T1 sequence (P02466 86-1125 limits assumed): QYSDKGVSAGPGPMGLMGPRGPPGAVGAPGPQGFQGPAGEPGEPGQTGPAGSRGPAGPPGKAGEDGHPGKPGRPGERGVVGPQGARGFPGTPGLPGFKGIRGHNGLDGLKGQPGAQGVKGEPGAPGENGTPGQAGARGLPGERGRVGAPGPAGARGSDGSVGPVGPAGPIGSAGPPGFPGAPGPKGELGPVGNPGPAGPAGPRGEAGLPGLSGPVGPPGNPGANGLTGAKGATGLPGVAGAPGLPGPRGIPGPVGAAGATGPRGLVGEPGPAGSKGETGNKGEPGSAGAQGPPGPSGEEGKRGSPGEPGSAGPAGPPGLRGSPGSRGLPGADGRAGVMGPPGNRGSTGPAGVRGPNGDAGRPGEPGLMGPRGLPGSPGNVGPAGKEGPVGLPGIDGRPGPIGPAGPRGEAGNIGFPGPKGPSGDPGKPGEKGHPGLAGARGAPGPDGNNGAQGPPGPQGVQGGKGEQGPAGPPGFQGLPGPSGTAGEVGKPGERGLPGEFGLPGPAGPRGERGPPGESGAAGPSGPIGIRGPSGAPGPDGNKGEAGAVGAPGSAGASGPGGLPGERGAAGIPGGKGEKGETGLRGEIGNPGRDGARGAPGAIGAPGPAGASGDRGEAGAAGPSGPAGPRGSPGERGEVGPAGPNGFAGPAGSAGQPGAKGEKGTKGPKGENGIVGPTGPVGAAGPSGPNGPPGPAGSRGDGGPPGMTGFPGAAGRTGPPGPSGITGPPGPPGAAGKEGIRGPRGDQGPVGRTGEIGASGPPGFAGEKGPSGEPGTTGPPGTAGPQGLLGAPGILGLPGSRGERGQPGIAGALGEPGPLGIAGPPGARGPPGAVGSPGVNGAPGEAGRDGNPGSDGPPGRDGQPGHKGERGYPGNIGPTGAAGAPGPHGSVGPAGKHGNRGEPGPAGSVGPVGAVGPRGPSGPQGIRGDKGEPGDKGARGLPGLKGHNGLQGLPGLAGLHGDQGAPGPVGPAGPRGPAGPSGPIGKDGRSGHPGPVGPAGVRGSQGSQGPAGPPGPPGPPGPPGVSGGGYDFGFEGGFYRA

Kd (rat tail collagen) [µM] | Compound | tissue uptake at 2 h (in vivo; sm. intestine) [%ID/g] | Biodistribution % ID/g, sm. intestine [3, 4] [% ID/g] | route of excretion ([3]; mouse, in vivo, iv) | tissue uptake at 2 h (in vivo; blood) [%ID/g] | tissue uptake at 2 h (in vivo; heart) [%ID/g] | tissue uptake at 2 h (in vivo; kidney) [%ID/g] | tissue uptake at 2 h (in vivo; liver) [%ID/g] | tissue uptake at 2 h (in vivo; lungs) [%ID/g] | tissue uptake at 2 h (in vivo; spleen) [%ID/g] | lung uptake in BM-treated (fibrotic) mice compared to sham, in words [3] | Biodistribution % ID/g, blood [3, 4] [% ID/g] | Biodistribution % ID/g, heart [3, 4] [% ID/g] | Biodistribution % ID/g, kidney [3, 4] [% ID/g] | Biodistribution % ID/g, liver [3, 4] [% ID/g] | Biodistribution % ID/g, lungs [3, 4] [% ID/g] | Biodistribution % ID/g, spleen [3, 4] [% ID/g] | further results
2.4 ± 1.5 | CC(C)C[C@H](NC(=O)[C@@H]1CSSC[C@H](NC(=O)[C@H](Cc2c[nH]cn2)NC(=O)[C@H](Cc2c[nH]c3ccccc23)NC(=O)[C@H](CCCCNC(=O)CNC(=O)CCC(C(=O)O)N2CCN(CC(=O)O)CCN(CC(=O)O)CC2)NC(=O)CNC(=O)CCC(C(=O)O)N2CCN(CC(=O)O)CCN(CC(=O)O)CC2)C(=O)N[C@@H]([C@@H](C)O)C(=O)N[C@@H]([C@@H](C)O)C(=O)N[C@@H](CCCCNC(=O)CCC(C(=O)O)N2CCN(CC(=O)O)CCN(CC(=O)O)CC2)C(=O)N[C@@H](Cc2ccccc2)C(=O)N2CCC[C@H]2C(=O)N[C@@H](Cc2c[nH]cn2)C(=O)N[C@@H](Cc2c[nH]cn2)C(=O)N[C@@H](Cc2ccc(O)cc2)C(=O)N1)C(=O)N[C@@H](Cc1ccc(O)cc1)C(=O)N[C@@H](Cc1ccc(-c2ccccc2)cc1)C(N)=O (single isomer, unassigned) [CBP7] | 0.853 ± 0.246 | 0.877 ± 0.077 | excreted mainly through the kidneys | – | – | – | – | – | – | – | – | – | – | – | – | – | Mean PET activity in heart and muscle, BM-treated vs sham, in words [1]: not significantly different; metabolic stability compared with CBP(n) probes with a single NODAGA chelator [2]: more metabolically stable
7.2 ± 5.2 | C[C@@H](O)[C@@H]1NC(=O)[C@@H](NC(=O)[C@H](Cc2c[nH]cn2)NC(=O)[C@H](Cc2c[nH]c3ccccc23)NC(=O)[C@H](CCC(N)=O)NC(=O)CNC(=O)CCC(C(=O)O)N2CCN(CC(=O)O)CCN(CC(=O)O)CC2)CSSC[C@@H](C(=O)N[C@@H](Cc2ccccc2)C(=O)N[C@@H](Cc2ccc(O)cc2)C(=O)NCC(N)=O)NC(=O)[C@H](Cc2ccc(O)cc2)NC(=O)[C@H](Cc2c[nH]cn2)NC(=O)[C@H](Cc2c[nH]cn2)NC(=O)[C@@H]2CCCN2C(=O)[C@H](Cc2ccccc2)NC(=O)[C@H](CCCNC(=N)N)NC(=O)[C@H]([C@@H](C)O)NC1=O (some centres unmarked) [CBP5] ({NODAGA}-GQWHCTTRFPHHYCFYG-NH2; disulfide 5-14) | 0.513 ± 0.1 | 0.431 ± 0.089 | excreted mainly through the kidneys | 0.11 ± 0.018 | 0.075 ± 0.009 | 30.5 ± 2.01 | 2.63 ± 0.146 | 0.318 ± 0.135 | 0.815 ± 0.42 | greater lung uptake in BM-treated mice | 0.121 ± 0.028 | 0.094 ± 0.013 | 18.368 ± 1.909 | 3.836 ± 0.770 | 0.623 ± 0.320 | 1.588 ± 0.546 | tissue uptake at 2 h (in vivo; bone): 0.703 ± 0.343 %ID/g; tissue uptake dose at 2 h (in vivo; Biodistribution % ID/lung): 0.032 ± 0.016 %ID; Biodistribution % ID/g, bone [3, 4]: 0.490 ± 0.237 % ID/g; Biodistribution % ID/lung ([3]; mouse, in vivo): 0.016 ± 0.007 % ID/lung
14.6 ± 5.8 | CC(C)C[C@H](NC(=O)[C@@H]1CSSC[C@H](NC(=O)[C@H](Cc2c[nH]cn2)NC(=O)[C@H](Cc2c[nH]c3ccccc23)NC(=O)[C@H](CCC(N)=O)NC(=O)CNC(=O)CCC(C(=O)O)N2CCN(CC(=O)O)CCN(CC(=O)O)CC2)C(=O)N[C@@H](Cc2ccc(O)cc2)C(=O)N[C@@H]([C@@H](C)O)C(=O)N[C@@H](CC(C)C)C(=O)N[C@@H](Cc2ccccc2)C(=O)N2CCC[C@H]2C(=O)N[C@@H](Cc2c[nH]cn2)C(=O)N[C@@H](Cc2c[nH]cn2)C(=O)N[C@@H](Cc2ccc(O)cc2)C(=O)N1)C(=O)N[C@@H](Cc1ccc(O)cc1)C(=O)NCC(N)=O (some centres unmarked) [CBP6] ({NODAGA}-GQWHCYTLFPHHYCLYG-NH2; disulfide 5-14; C-terminus assumed) | 0.747 ± 0.168 | 0.938 ± 0.164 | excreted mainly through the kidneys | 0.147 ± 0.01 | 0.121 ± 0.017 | 13.4 ± 1.23 | 2.64 ± 0.144 | 0.013 ± 0.002 | 0.669 ± 0.03 | greater lung uptake in BM-treated mice | 0.279 ± 0.096 | 0.156 ± 0.016 | 14.008 ± 0.727 | 2.503 ± 0.218 | 0.019 ± 0.003 | 0.775 ± 0.084 | –
